Results: paper PMC11172311, “Structural and Interactional Analysis of the Flavonoid Pathway Proteins: Chalcone Synthase, Chalcone Isomerase and Chalcone Isomerase-like Protein” (International Journal of Molecular Sciences, 2024)

Legend:
[1] = substrate: O=C(/C=C/c1ccc(O)cc1)c1c(O)cc(O)cc1O; assay: purified protein; assay type: biochemical, Panicum virgatum
[2] = substrate: CC(C)(COP(=O)(O)OP(=O)(O)OC[C@H]1O[C@@H](n2cnc3c(N)ncnc32)[C@H](O)[C@@H]1OP(=O)(O)O)[C@@H](O)C(=O)NCCC(=O)NCCSC(=O)/C=C/c1ccc(O)cc1; assay: steady-state kinetics, LC-MS/MS (Km); assay type: biochemical, Panicum virgatum; settings: malonyl-CoA (co-substrate)
[3] = substrate: O=C(/C=C/c1ccc(O)cc1)c1c(O)cc(O)cc1O; assay: steady-state kinetics (Km); assay type: biochemical, Sorghum bicolor
[4] = substrate: O=C(/C=C/c1ccc(O)cc1)c1ccc(O)cc1O; assay: steady-state kinetics (Km); assay type: biochemical, Sorghum bicolor

B1: PvCHI (chalcone isomerase) (Panicum virgatum) (protein)
chain: MAAVSEVAVDGVVFPPVARPPGSGRSHFLAGAGVRGMEIGGNFIKFTAIGVYLEEGAAVSALAKKWAGKSADELAADAAFFRDVVTGDFEKFTRVTMILPLTGEQYSGKVTENCVAYWKAVGVYTDAEGAAVDKFKEAFKPETFPPGASILFTHSPAGVLTVAFSKDSSVPESGGVAIDNKPLCEAVLESIIGEHGVSPAAKLSVAARVSELLKEASPAGGAPQAAAEPAVPVSA
notes: recombinant, N-terminal 6×-His tag
Question: Which results are given for B1?
Answer: Km [1]: 16.04 ± 6.28 µM; kcat [1]: 8010 ± 1180 s⁻¹; kcat/Km [1]: 5e+08 M⁻¹ s⁻¹

B2: PvCHS (chalcone synthase) (Panicum virgatum) (protein)
chain: MAGAAAAVTVEEVRKAQRASGPATVLAIGTATPANCVHQADYPDYYFRVTKSDHLTDLKEKFKRMCDKSMIRKRYMHLTEEFLAENPNMCAYMAPSLDARQDIVVVEVPKLGKAAAQKALKEWGQPRSRITHLVFCTTSGVDMPGADYQLTKLLGLRPSVNRLMMYQQGCFAGGTVLRVAKDLAENNRGARVLVVCSEITAVTFRGPSESHLDSLVGQALFGDGAAAVIVGADPDERAERPLFQLVSAAQTLLPDSEGAIDGHLREVGLTFHLLKDVPGLISKNIERALEAAFAPLGISDWNSIFWVAHPGGPAILDQVEAKVSLDKARMRATRHVLAEYGNMSSACVLFILDEMRKRSAEDGCATTGEGLDWGVLFGFGPGLTVETVVLHSVPITAGAAAA
notes: as for B1
Question: With B2 as the protein, how does the Km [2] read?
Answer: 0.1303 ± 0.0319 µM

Question: What about the kcat [2] of the same protein?
Answer: 0.00695 ± 0.00077 s⁻¹

Question: And the kcat/Km [2]?
Answer: 53300 M⁻¹ s⁻¹

B3: SbCHI (chalcone isomerase, Bmr30) (Sorghum bicolor) (protein)
chain: MAVPEVVVEGVVFPPVARPPGSAGSHFLGGAGVRGIEIGGNFIKFTAIGVYLEDAAVSALAKKWAGKTADELASDAAFFRDVVTGDFEKFTRVTMLLPLTGEQYAGKVTENCVAFWKAVGLYTDAEGVAVEKFKEAFKPETFPPGASILFTHSSTGVLTVAFSKDSSVPASGGVAIENKHLCEAVLESIIGEHGVSPAAKLSLAARVSELLTKGTAGAADAPQAEPVSVTA
notes: recombinant SbCHI
Question: With B3 as the protein, how does the Km [3] read?
Answer: 16.55 ± 2.08 µM

Question: What about the kcat [3] of the same protein?
Answer: 2890 ± 144 s⁻¹

Question: And the kcat/Km [3]?
Answer: 1.74e+08 M⁻¹ s⁻¹

Question: What about the Km [4] of the same protein?
Answer: 1.585 ± 0.929 µM

Question: And the kcat [4]?
Answer: 0.239 ± 0.0274 s⁻¹

Question: And the kcat/Km [4]?
Answer: 151000 M⁻¹ s⁻¹
